Data set [1] addresses T1, porcine pancreas trypsin (Sus scrofa, UniProt P00761).
T1 construct: purchased Sigma; host or cells: porcine pancreas
In words: Digestion of labelled protein with trypsin, differential pulse voltammetry. It is filed as biochemical. On the procedure:
(§1) Protease assays were performed as follows unless stated otherwise. […] Samples were incubated at 37° C. for 1 hour.
A digestion of Fc-BSA with trypsin was carried out as described above. […] The positive reaction has a peak position of 435 mV and a peak height of 4.58×10^−7 A; the no trypsin control reaction has a peak position of 432 mV and a peak height of 2.55×10^−8 A.
A digestion of unlabelled BSA with trypsin was carried out in the same manner as for the labelled molecules as described above. The differential pulse voltammogram results are shown in FIG. 10 in which (a) is the trace for a no-trypsin control reaction and (b) is the trace for trypsin BSA reaction.
A digestion of FcU-BSA with trypsin was carried out as described above. […] The positive reaction has a peak position of 97 mV and a peak height of 5.01×10^−7 A; there was no peak in the no-trypsin control reaction. […]
Five digestions of Fc-BSA with trypsin were carried out using the protocol described above. As described in the general protocol, 2 μl of enzyme was used for each 200 μl reaction; for reaction (i) 10 mg/ml enzyme solution was used; reaction (ii): 1 mg/ml; reaction (iii) 0.1 mg/ml; reaction (iv) 0.01 mg/ml and reaction (v) was a no-trypsin control. The differential pulse voltammogram results are shown in FIG. 14 with baseline correction.
Five digestions of Fc-BSA with trypsin were carried out using the protocol described above. In reaction (i) the incubation at 37° was carried out for 60 minutes, in reaction (ii) for 15 minutes, in reaction (iii) for 5 minutes, in reaction (iv) for 2 minutes and reaction (v) was a 0 minutes no-trypsin control. The differential pulse voltammogram results are shown in FIG. 15 with baseline correction.

The target in another data set is T2, trypsin (Sus scrofa, UniProt P00761).
T2 construct: purchased Sigma; host or cells: porcine pancreas
Nature of the data set: Amperometric analysis of trypsin digestion. The class given is biochemical, porcine. Conditions: amperometric time course trace. As to the method:
(§2) Four digestion reactions were carried out with real-time amperometric analysis. […] Tryspin was resuspended in HCl (1 mM, pH 3.0), papain and carboxypeptidase were resuspended in NaCl (100 mM). […] The amperometry conditions were as set out in Tables 2 and 3.
In FIG. 17, there is shown the amperometric time course trace for the trypsin digestion of Fc-BSA. […] As the movement of the species present in the solution reaches a steady state, the current response appears to decay.
(§3) In FIG. 18, there is shown the amperometric time course trace for the papain digestion of FcU-BSA. […] As the movement of the species present in the solution reaches a steady state, the current response appears to decay. […] The amperometric time course trace for the trypsin digestion of FcU-BSA is not illustrated in the drawings but was analogous.

The next data set addresses T3, papaya latex papain (Carica papaya, UniProt P00784).
T3 construct: purchased Sigma; host or cells: papaya latex
T3 sequence (P00784 134-345): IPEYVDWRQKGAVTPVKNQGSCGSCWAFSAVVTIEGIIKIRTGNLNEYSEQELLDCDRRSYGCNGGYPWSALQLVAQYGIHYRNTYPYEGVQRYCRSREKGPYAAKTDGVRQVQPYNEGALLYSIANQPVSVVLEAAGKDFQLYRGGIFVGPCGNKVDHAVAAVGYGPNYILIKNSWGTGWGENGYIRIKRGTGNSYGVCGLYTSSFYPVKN
Nature of the data set: Digestion of FcU-BSA with papain, differential pulse voltammetry. The class given is biochemical. As to the method: as §1
A digestion of FcU-BSA with papain was carried out as described above.

For a further data set, the target named is T4, papain (Carica papaya, UniProt P00784).
T4 construct: purchased Sigma; host or cells: papaya latex
T4 sequence (P00784 134-345): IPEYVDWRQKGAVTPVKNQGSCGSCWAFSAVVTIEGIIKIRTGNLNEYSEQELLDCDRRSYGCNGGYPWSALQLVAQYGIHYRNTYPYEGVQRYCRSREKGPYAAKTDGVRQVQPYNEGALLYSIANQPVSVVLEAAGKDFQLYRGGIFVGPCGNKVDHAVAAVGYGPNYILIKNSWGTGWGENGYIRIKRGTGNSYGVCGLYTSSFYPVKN
Nature of the data set: Amperometric analysis of papain digestion. The class given is biochemical. To be noted: amperometric time course trace, FIG. 18. On the procedure:
as §2, §3

Data set [2] deals with porcine pancreas trypsin (1120 BAEE units/mg solid) (porcine) (UniProt P00761). Nature of the data set: cell-based or functional assay.
The target in data set [3] is T5, type I-S soybean trypsin inhibitor, P01070.
T5 chain: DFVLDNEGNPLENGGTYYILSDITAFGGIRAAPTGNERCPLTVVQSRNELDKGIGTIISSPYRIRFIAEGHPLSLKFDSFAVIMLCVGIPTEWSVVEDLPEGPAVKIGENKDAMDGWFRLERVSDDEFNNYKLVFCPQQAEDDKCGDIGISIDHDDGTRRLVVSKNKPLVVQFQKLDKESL

In data set [4] the target is T1, porcine pancreas trypsin. In words: Effect of a protease inhibitor on electrochemical marker signal (trypsin digestion of Fc-BSA). The class given is biochemical. On the procedure:
as §1
Five digestions of Fc-BSA with trypsin were carried out using the protocol described above. In addition, soybean trypsin inhibitor was added to reaction mixtures […]. Solutions of the soybean trypsin inhibitor were prepared by resuspending inhibitor as supplied in deionised water to a concentration of 10 mg/ml and 1 mg/ml as appropriate. No inhibitor was added to reaction (i); 0.5 μl of 1 mg/ml inhibitor solution was added to reaction (ii); […] of 10 mg/ml inhibitor was added to reaction (iii); 5 μl of 10 mg/ml inhibitor solution was added to reaction (iv) and 5 μl of 10 mg/ml inhibitor solution was added to a no-trypsin control reaction. The differential pulse voltammogram results are shown in FIG. 16 with baseline correction.

Where [5] appears, read: positive reaction, 2 μl enzyme (10 mgml^−1), 37° C. for 1 hour.
Setting [6] is: positive reaction, 37° C. for 1 hour.
The mark [7] stands for this setting: no-trypsin control reaction with 5 μl of 10 mg/ml inhibitor solution.
Setting [8] is: reaction (ii): 0.5 μl of 1 mg/ml inhibitor solution.
Where [9] appears, read: reaction (iii): 0.51 of 10 mg/ml inhibitor.
[10] abbreviates: reaction (iv): 5 μl of 10 mg/ml inhibitor solution.

As to “FcU-BSA: Bovine serum albumin labelled with 4-(3′-ferrocenylureido)-1-benzoyl groups”, the peak height result is given as “no peak” with porcine pancreas trypsin [1] (no-trypsin control reaction), 5.01×10^−7 A with porcine pancreas trypsin [1] (setting [5]) and 2.62×10^−7 A with papaya latex papain (setting [6]). Also, the peak position with porcine pancreas trypsin [1] (setting [5]) is listed as 97 mV; with papaya latex papain (setting [6]), 93 mV. Also, the “faradaic current response over time after addition of the enzyme” value is recorded as “analogous” with trypsin and “increase in current” with papain. The peak entry with papaya latex papain (no-papain control reaction) is “no peak was found”.

“type I-S soybean trypsin inhibitor (from UniProt P01070 25-205)” came in with a peak height, differential pulse voltammogram of trypsin digestion of Fc-BSA; reaction (ii), 0.5 ul of 1 mg/ml inhibitor solution in the 200 ul reaction (no-inhibitor reaction (i): 2.56x10^-7 A) in data set [2] of 2.12e-07 A.

As to “unlabelled BSA: Bovine serum albumin (lyophilised powder, approx. 99%) from Sigma, unlabelled control substrate [reference compound]”, the “peaks in differential pulse voltammogram” value with porcine pancreas trypsin [1] (unlabelled substrate, trypsin reaction and no-trypsin control) is on record as “No peaks were found”.

B1: porcine pancreas trypsin (1120 BAEE units/mg solid) (protein)
chain: IVGGYTCAANSIPYQVSLNSGSHFCGGSLINSQWVVSAAHCYKSRIQVRLGEHNIDVLEGNEQFINAAKIITHPNFNGNTLDNDIMLIKLSSPATLNSRVATVSLPRSCAAAGTECLISGWGNTKSSGSSYPSLLQCLKAPVLSDSSCKSSYPGQITGNMICVGFLEGGKDSCQGDSGGPVVCNGQLQGIVSWGYGCAQKNKPGVYTKVCNYVNWIQQTIAAN
As for B1, the “magnitude of signal in the differential pulse voltammogram of trypsin digestion of Fc-BSA” value in data set [3] is “the magnitude of signal in the differential pulse voltammogram is strongly dependent on the concentration of inhibitor present in the digestion experiment”.

B2: soybean trypsin inhibitor: type I-S soybean trypsin inhibitor obtained from Sigma (protein)
chain: DFVLDNEGNPLENGGTYYILSDITAFGGIRAAPTGNERCPLTVVQSRNELDKGIGTIISSPYRIRFIAEGHPLSLKFDSFAVIMLCVGIPTEWSVVEDLPEGPAVKIGENKDAMDGWFRLERVSDDEFNNYKLVFCPQQAEDDKCGDIGISIDHDDGTRRLVVSKNKPLVVQFQKLDKESL
Consider B2, for which the peak height was 2.75×10^−8 A in the data set with porcine pancreas trypsin [4] (setting [7]), 2.12×10^−7 A with porcine pancreas trypsin [4] (setting [8]), 1.60×10^−7 A with porcine pancreas trypsin [4] (setting [9]) and 5.33×10^−8 A with porcine pancreas trypsin [4] (setting [10]). Further, the peak position with porcine pancreas trypsin [4] (setting [7]) turned out to be 429 mV; with porcine pancreas trypsin [4] (setting [8]), 435 mV; with porcine pancreas trypsin [4] (setting [9]), 430 mV; with porcine pancreas trypsin [4] (setting [10]), 426 mV.

Values taken from patent US7803572B2, “Protease detection assay” (Atlas Genetics, Ltd., priority 2003, dated 2010).
